experiment: yeast display, Sf9 membrane polyspecificity reagent, FACS + sequencing; frameworks hold sequencing errors
Method in brief: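 After 36–48 hours of galactose induction, yeast (Saccharomyces cerevisiae BJ5465) displaying a synthetic nanobody library were stained at 4 °C for 1 hour with 10% biotinylated, detergent-solubilized Sf9 membrane reagent. Streptavidin microbeads enriched the stained cells before FACS sorting into low and high (top ~1%) gates on anti-HA and streptavidin fluorescence. Each clone's polyreactivity label reflects its gate of origin.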

Sequence | polyreactivity (PSR sort gate)
QVQLVESGGGLVQAGGSLRLSCAASGLIFVDNAMGWYRPAPGKEREVVAAIDSGGSTNYADSVKGRFTISRDNAKNTVYLQMNSLKPEDTAVYYCAADWIYAPWYYQESVEYYYWGQGTQVTVSS | low polyreactivity
QVQLVESGGGLVQAGGSLRLSCAASGLIFVFYAMGWYRQAPGKERELVAAISRSGTSTYADSVKGRFTISRDNAKNTVYLQMNSLKPEDTAVYYCNAYRYYSPYGYWGQGTQVTVSS | low polyreactivity
QVQLVESGGGLVQAGGSLRLSCAASGLIFVKYAMGWYRQAPGKERELVADITSTGGSTYYADSVKGRFTISRDNAKNTVYLQMNSLKPEDTAVYYCATDYGYYDYWGQGTQVTVSS | low polyreactivity
QVQLVESGGGLVQAGGSLRLSCAASGLIFVNAMGWYRQAPGKEREFVAAITYSTGSTYYADSVKGRFTISRDNAKNTVYLQMNRLKPEDTAVYYCAKDRSGHGTERDYWGQGTQVTVSS | low polyreactivity
QVQLVESGGGLVQAGGSLRLSCAASGLIFVRYAMGWYRQAPGKERELVAAISRGGTTYYADSVKGRFTISRDNAKNTVYLQMNSLKPEDTAVYYCAVGIRYSKDYYYWGQGTQVTVSS | high polyreactivity
QVQLVESGGGLVQAGGSLRLSCAASGLIFVSNAMGWYRQAPGKERELVAAISWSGSRTYYADSVKGRFTISRDNAKNTVYLQMNSLKPEDTAVYYCNAVRRGLPVVGAYDYWGQGTQVTVSS | high polyreactivity
QVQLVESGGGLVQAGGSLRLSCAASGLIFVSYAMGWYRQAPGKERELVAAISSGGSTYYADSVKGRFTISRDNAKNTVYLQMNSLKPEDTAVYYCAAEYVFRGYVGYDYWGQGTQVTVSS | low polyreactivity
QVQLVESGGGLVQAGGSLRLSCAASGLIFWAYAMGWYRQAPGKERELVAAISWSGARTYYADSVKGRFTISRDNAKNTVYLQMNILKPEDTAVYYCAAGLSSSSSGYEGDYWGLGTQVTVSS | high polyreactivity
QVQLVESGGGLVQAGGSLRLSCAASGLIFWKYAMGWYREAPGKERELVAAITSGGSTNYADSVKGRFTISRDNAKNPVYLQMNSLKPEDTAVYYCNARSWFEYYWGQGTQVTVSS | high polyreactivity
QVQLVESGGGLVQAGGSLRLSCAASGLIFWKYARGWYRQAPGKERELVAAIRKSVGSTYYADSVKGRFTISRDNAKNTVYLQMNSLKPEDTAVYYCAAVNAGVGSPVKRDYWGQGTQVTVSS | high polyreactivity
QVQLVESGGGLVQAGGSLRLSCAASGLIFWLNAMGWYRQAPGKERELVATITAGGDDTNYADSVKGRFTISRDNAKNTVYLQMNSLKPEDTAVYYCAKSRTRSGHYGYDYWGQGTQVTVSS | low polyreactivity
QVQLVESGGGLVQAGGSLRLSCAASGLIFWYSAMGWYRQAPGKERELVAAISSGGSTNYADSVKGRFTISRDNAKNTVYLQMNSLKPEDTAVYYCNVYTYRFHTARQAVDYWGQGTQVTVSS | low polyreactivity
QVQLVESGGGLVQAGGSLRLSCAASGLIFYDNMGWYRQAPGKERELVAAISSSGGSTSYADSVKGRFTISRDNAKNTVYLQMNSLKPEDTAVYDSAADSYPAYLGFVGFDYWGQGTQVTVSS | low polyreactivity
QVQLVESGGGLVQAGGSLRLSCAASGLIFYDNVMGWYRQAPVKEREFVAAITSIGGSTYYADSVKGRFTISRDNAKNTVYLQMNSLKPEDTAVYYCNVKSKYYSPNYDYWGQGTQVTVSS | low polyreactivity
QVQLVESGGGLVQAGGSLRLSCAASGLIFYFYAMGWYRQAPGKERELVAAISSRGGRTYYADSVKGRFTISRDNAKNTVYLQMNSLKPEDTAVYYCNVDQLLRRTSAQGDYWGQGTQVTVSS | high polyreactivity
QVQLVESGGGLVQAGGSLRLSCAASGLIFYGNAMGWYRKAPGKERELVAAISWSGGNTSYADSVKGRFTISRDNAKNTVYVLMNSLKAEDTAVDYCNADSLPSLERYGYWGQGTQVTVSS | low polyreactivity
